Results as given in PMC4167889 (Molecular cell, 2009).

Tests used:
[1] = molecular target: recombinant wild-type p105, His-tagged (E. coli) (UniProt P25799); test: SEC
AUC = molecular target: the molecule itself; test: AUC

Row | stoichiometry N [1] | Molecule | stoichiometry N (AUC)
1 | 1 | p50, the 50 kD N-terminal product of recombinant p105 (E. coli) (domain or fragment) | 
2 |  | recombinant wild-type p105, His-tagged (E. coli) (natural protein, UniProt P25799-1 1-971, looked up) MADDDPYGTGQMFHLNTALTHSIFNAELYSPEIPLSTDGPYLQILEQPKQRGFRFRYVCEGPSHGGLPGASSEKNKKSYPQVKICNYVGPAKVIVQLVTNGKNIHLHAHSLVGKHCEDGVCTVTAGPKDMVVGFANLGILHVTKKKVFETLEARMTEACIRGYNPGLLVHSDLAYLQAEGGGDRQLTDREKEIIRQAAVQQTKEMDLSVVRLMFTAFLPDSTGSFTRRLEPVVSDAIYDSKAPNASNLKIVRMDRTAGCVTGGEEIYLLCDKVQKDDIQIRFYEEEENGGVWEGFGDFSPTDVHRQFAIVFKTPKYKDVNITKPASVFVQLRRKSDLETSEPKPFLYYPEIKDKEEVQRKRQKLMPNFSDSFGGGSGAGAGGGGMFGSGGGGGSTGSPGPGYGYSNYGFPPYGGITFHPGVTKSNAGVTHGTINTKFKNGPKDCAKSDDEESLTLPEKETEGEGPSLPMACTKTEPIALASTMEDKEQDMGFQDNLFLEKALQLARRHANALFDYAVTGDVKMLLAVQRHLTAVQDENGDSVLHLAIIHLHAQLVRDLLEVTSGLISDDIINMRNDLYQTPLHLAVITKQEDVVEDLLRVGADLSLLDRWGNSVLHLAAKEGHDRILSILLKSRKAAPLIDHPNGEGLNAIHIAVMSNSLPCLLLLVAAGAEVNAQEQKSGRTALHLAVEYDNISLAGCLLLEGDAHVDSTTYDGTTPLHIAAGRGSTRLAALLKAAGADPLVENFEPLYDLDDSWEKAGEDEGVVPGTTPLDMAANWQVFDILNGKPYEPVFTSDDILPQGDMKQLTEDTRLQLCKLLEIPDPDKNWATLAQKLGLGILNNAFRLSPAPSKTLMDNYEVSGGTIKELMEALQQMGYTEAIEVIQAAFRTPATTASSPVTTAQVHCLPLSSSSTRQHIDELRDSDSVCDSGVETSFRKLSFTESLTGDSPLLSLNKMPHGYGQEGPIEGKI | 2
